Measurements as given in US20260256936A1, “BIOACTIVE CONJUGATES, PREPARATION METHOD AND USE THEREOF” (priority 2023, published 2026).
Where two headings read alike, the source gives them in different places.

Key:
Assay in all cases: cell-based or functional assay
[1] = target: T1, CLL1 on CLL1-expressing cells (U937, HL60) (human, UniProt Q5QGZ9 1-265)
T1 sequence (looked up): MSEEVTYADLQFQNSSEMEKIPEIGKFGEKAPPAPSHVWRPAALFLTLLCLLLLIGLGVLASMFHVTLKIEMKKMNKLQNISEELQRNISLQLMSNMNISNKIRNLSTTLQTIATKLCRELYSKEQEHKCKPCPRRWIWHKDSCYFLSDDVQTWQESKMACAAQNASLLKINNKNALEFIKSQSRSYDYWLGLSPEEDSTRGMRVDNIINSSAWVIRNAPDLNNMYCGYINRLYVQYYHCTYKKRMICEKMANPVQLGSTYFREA

[2] = target: T1, CLL1 on CLL1-expressing cells (U937, …); remark: listed apart in the source
[3] = target: T1, CLL1 on CLL1-expressing cells (U937, …); remark: listed apart in the source
[4] = target: T1, CLL1 on CLL1-expressing cells (U937, …); remark: listed apart in the source
[5] = target: T1, CLL1 on CLL1-expressing cells (U937, …); remark: listed apart in the source
[6] = target: T2, B7H3 on B7H3-expressing cells (NCI-H358, NCI-H1048) (human, UniProt Q5ZPR3 29-534)
T2 sequence (looked up): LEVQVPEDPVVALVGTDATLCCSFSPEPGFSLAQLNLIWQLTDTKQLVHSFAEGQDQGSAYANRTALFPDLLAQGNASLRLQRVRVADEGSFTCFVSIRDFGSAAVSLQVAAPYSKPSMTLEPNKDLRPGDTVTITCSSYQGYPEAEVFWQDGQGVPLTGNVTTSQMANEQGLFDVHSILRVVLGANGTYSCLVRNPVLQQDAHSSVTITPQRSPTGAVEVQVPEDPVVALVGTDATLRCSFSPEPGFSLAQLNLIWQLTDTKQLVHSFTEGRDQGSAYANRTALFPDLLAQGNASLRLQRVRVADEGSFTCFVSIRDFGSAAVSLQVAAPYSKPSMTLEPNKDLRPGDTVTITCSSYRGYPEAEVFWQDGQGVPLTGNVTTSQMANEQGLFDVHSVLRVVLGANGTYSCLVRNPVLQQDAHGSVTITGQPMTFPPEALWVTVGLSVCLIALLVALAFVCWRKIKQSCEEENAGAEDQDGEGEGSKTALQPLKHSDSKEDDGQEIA

[7] = target: T2, B7H3 on B7H3-expressing cells …; remark: listed apart in the source

B1: ADC3-2 (antibody, human IgG1, kappa, V domains shown)
VH: EVQLVQSGAEVKKPGASVKVSCKASGYSFTDYYMHWVRQAPGQGLEWIGRINPYAGAAFYSQNFKDRVTLTVDTSTSTAYLELSSLRSEDTAVYYCAIERGADLEGYAMDYWGQGTLVTVSS
VL: DIQMTQSPSSLSASVGDRVTITCRASQSVSTSSYNYMHWYQQKPGKPPKLLIKYASNLESGVPSRFSGSGSGTDFTLTISSLQPEDFATYYCQHSWEIPLTFGQGTKVEIKR
modifications: conjugator-linker-payload on cysteine thiols after TCEP reduction; positions not given
EC50 (nM) direct cellular killing, HL60 [1]: 8.2 nM | EC50 (nM) direct cellular killing, U937 [1]: 0.2 nM | Emax (%) direct cellular killing, HL60 [1]: 55.9%

B2: ADC3-12 (antibody, human IgG1, kappa, V domains shown)
VH: B1 VH
VL: B1 VL
modifications: conjugator-linker-payload on cysteine thiols after TCEP reduction; positions not given
EC50 (nM) direct cellular killing, HL60 [2]: 8 nM | EC50 (nM) direct cellular killing, U937 [2]: 0.7 nM | Emax (%) direct cellular killing, HL60 [2]: 81%

B3: ADC3-1 (antibody, human IgG1, kappa, V domains shown)
VH: B1 VH
VL: B1 VL
modifications: conjugator-linker-payload on cysteine thiols after TCEP reduction; positions not given
EC50 (nM) direct cellular killing, HL60 [1]: 5.7 nM | EC50 (nM) direct cellular killing, U937 [1]: 0.5 nM

B4: ADC3-8 (antibody, human IgG1, kappa, V domains shown)
VH: B1 VH
VL: B1 VL
modifications: conjugator-linker-payload on cysteine thiols after TCEP reduction; positions not given
EC50 (nM) direct cellular killing, HL60 [3]: 0.1 nM | EC50 (nM) direct cellular killing, U937 [3]: 0.2 nM

B5: ADC3-6 (antibody, human IgG1, kappa, V domains shown)
VH: B1 VH
VL: B1 VL
modifications: conjugator-linker-payload on cysteine thiols after TCEP reduction; positions not given
EC50 (nM) direct cellular killing, HL60 [4]: 0.4 nM | EC50 (nM) direct cellular killing, U937 [4]: 0.6 nM

B6: ADC3-7 (antibody, human IgG1, kappa, V domains shown)
VH: B1 VH
VL: B1 VL
modifications: conjugator-linker-payload on cysteine thiols after TCEP reduction; positions not given
EC50 (nM) direct cellular killing, HL60 [3]: 0.4 nM | EC50 (nM) direct cellular killing, U937 [3]: 0.3 nM

B7: ADC3-11 (antibody, human IgG1, kappa, V domains shown)
VH: B1 VH
VL: B1 VL
modifications: conjugator-linker-payload on cysteine thiols after TCEP reduction; positions not given
EC50 (nM) direct cellular killing, HL60 [2]: 4.6 nM | EC50 (nM) direct cellular killing, U937 [2]: 12.8 nM | Emax (%) direct cellular killing, HL60 [2]: 43.9% | Emax (%) direct cellular killing, U937 [2]: 78.7%

B8: ADC3-10 (antibody, human IgG1, kappa, V domains shown)
VH: B1 VH
VL: B1 VL
modifications: conjugator-linker-payload on cysteine thiols after TCEP reduction; positions not given
EC50 (nM) direct cellular killing, HL60 [2]: 1.2 nM | EC50 (nM) direct cellular killing, U937 [2]: 0.7 nM | Emax (%) direct cellular killing, HL60 [2]: 82.2%

B9: ADC3-9 (antibody, human IgG1, kappa, V domains shown)
VH: B1 VH
VL: B1 VL
modifications: conjugator-linker-payload on cysteine thiols after TCEP reduction; positions not given
EC50 (nM) direct cellular killing, HL60 [3]: 1.7 nM | EC50 (nM) direct cellular killing, U937 [3]: 0.6 nM

B10: ADC3-3 (antibody, human IgG1, kappa, V domains shown)
VH: B1 VH
VL: B1 VL
modifications: conjugator-linker-payload on cysteine thiols after TCEP reduction; positions not given
EC50 (nM) direct cellular killing, HL60 [1]: 1.6 nM | EC50 (nM) direct cellular killing, U937 [1]: 0.2 nM

B11: ADC3-5 (antibody, human IgG1, kappa, V domains shown)
VH: B1 VH
VL: B1 VL
modifications: conjugator-linker-payload on cysteine thiols after TCEP reduction; positions not given
EC50 (nM) direct cellular killing, U937 [4]: 1 nM | Emax (%) direct cellular killing, HL60 [4]: 79.8%

B12: ADC3-4 (antibody, human IgG1, kappa, V domains shown)
VH: B1 VH
VL: B1 VL
modifications: conjugator-linker-payload on cysteine thiols after TCEP reduction; positions not given
EC50 (nM) direct cellular killing, HL60 [1]: 1.1 nM | EC50 (nM) direct cellular killing, U937 [1]: 0.2 nM | Emax (%) direct cellular killing, HL60 [1]: 98%

B13: ADC3-15 (antibody, human IgG1, kappa, V domains shown)
VH: B1 VH
VL: B1 VL
modifications: conjugator-linker-payload on cysteine thiols after TCEP reduction; positions not given
EC50 (nM) direct cellular killing, HL60 [5]: 6.5 nM | EC50 (nM) direct cellular killing, U937 [5]: 0.3 nM

B14: ADC3-A (antibody, human IgG1, kappa, V domains shown)
VH: B1 VH
VL: B1 VL
modifications: conjugator-linker-payload on cysteine thiols after TCEP reduction; positions not given
EC50 (nM) direct cellular killing, HL60 [1]: 6.3 nM | EC50 (nM) direct cellular killing, U937 [1]: 0.8 nM | EC50 (nM) direct cellular killing, HL60 [4]: 6.5 nM | EC50 (nM) direct cellular killing, HL60 [3]: 1.4 nM | EC50 (nM) direct cellular killing, U937 [3]: 0.7 nM | EC50 (nM) direct cellular killing, HL60 [2]: 4.8 nM | EC50 (nM) direct cellular killing, HL60 [5]: 10.9 nM | EC50 (nM) direct cellular killing, U937 [5]: 0.7 nM

B15: ADC3-B (antibody, human IgG1, kappa, V domains shown)
VH: QVQLVQSGAEVKKPGSSVKVSCKASGYTFTNYVMHWVRQAPGQGLEWMGYINPYNDDVKYNEKFKGRVTITADESTSTAYMELSSLRSEDTAVYYCARWGYYGSPLYYFDYWGQGTLVTVSS
VL: EIVLTQSPATLSLSPGERATLSCRASSRLIYMHWYQQKPGQAPRPLIYATSNLASGIPARFSGSGSGTDFTLTISSLEPEDFAVYYCQQWNSNPPTFGQGTKVEIKR
modifications: conjugator-linker-payload on cysteine thiols after TCEP reduction; positions not given
EC50 (nM) direct cellular killing, NCI-H358 [6]: 0.1 nM | EC50 (nM) direct cellular killing, NCI-H1048 [6]: 0.2 nM

B16: ADC4-1 (antibody, human IgG1, kappa, V domains shown)
VH: B15 VH
VL: B15 VL
modifications: conjugator-linker-payload on cysteine thiols after TCEP reduction; positions not given
EC50 (nM) direct cellular killing, NCI-H358 [7]: 0.1 nM | EC50 (nM) direct cellular killing, NCI-H1048 [7]: 0.6 nM | Emax (%) direct cellular killing, NCI-H358 [7]: 82.8% | Emax (%) direct cellular killing, NCI-H1048 [7]: 83.6%

B17: ADC4-3 (antibody, human IgG1, kappa, V domains shown)
VH: B15 VH
VL: B15 VL
modifications: conjugator-linker-payload on cysteine thiols after TCEP reduction; positions not given
EC50 (nM) direct cellular killing, NCI-H358 [7]: 0.1 nM | EC50 (nM) direct cellular killing, NCI-H1048 [7]: 1.6 nM | Emax (%) direct cellular killing, NCI-H358 [7]: 79.9% | Emax (%) direct cellular killing, NCI-H1048 [7]: 80%

B18: ADC4-2 (antibody, human IgG1, kappa, V domains shown)
VH: B15 VH
VL: B15 VL
modifications: conjugator-linker-payload on cysteine thiols after TCEP reduction; positions not given
EC50 (nM) direct cellular killing, NCI-H358 [7]: 0.1 nM | Emax (%) direct cellular killing, NCI-H358 [7]: 81% | Emax (%) direct cellular killing, NCI-H1048 [7]: 62%
